# Reference: the nanobody polyreactivity screen of Harvey et al. (2022)
# Assay: yeast display, Sf9 membrane polyspecificity reagent, FACS + sequencing; frameworks hold sequencing errors
# In short: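 In a synthetic yeast display library (Saccharomyces cerevisiae BJ5465), nanobody expression was induced with galactose for 36–48 hours. FACS gates were set low and high (top ~1%) using anti-HA fluorescence for expression and streptavidin fluorescence for binding of the Sf9 membrane reagent. Each polyreactivity label is drawn from the gate of origin.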
row,Sequence,polyreactivity (PSR sort gate)
1,QVQLVESGGGLVQAGGSLRLSCAASGFIFLENDMGCYRQAPGKERELVASINSGSDTNYADSVKGRFTISRDNAKNTVYLQMNSLKPEDTAVYYCNASYNGVPARYDYWGQGTQVTVSS,low polyreactivity
2,QVQLVESGGGLVQAGGSLRLSCAASGFIFLEYAMGWYRQAPGKERELVAAISARTGSTYYADSVKGRFTISRDNEKNTVYLLMNSLIPEDTAVYYSNKLTWRGEVDYWGHGTQVTVSS,high polyreactivity
3,QVQLVESGGGLVQAGGSLRLSCAASGFIFLGKAMGWYRQAPAKERELVAAISSGGSTYADSVKGRFTISSDNAKNTVYLQMYSLKPEDTAVYYFAVDRAFRAQNYHEYYYWGQGTQVTVSS,low polyreactivity
4,QVQLVESGGGLVQAGGSLRLSCAASGFIFLGYAMGWYRQAPGKERELVAAISSDSDTNYADSVKGRFTISRDNAKNTVYLQMNSLKPEDTAVYYCNADIDSYREMDYWGQGTQVTVSS,low polyreactivity
5,QVQLVESGGGLVQAGGSLRLSCAASGFIFLGYGMGWYRQAPGKEREFVAGISWSGGSTYYADSVKGRFTISRDNAKNTVYLQMNSLKPEDTAVYYCNAVVFWGGGDYYWGQGTQVTVSS,low polyreactivity
6,QVQLVESGGGLVQAGGSLRLSCAASGFIFLHYAMGWYRQAPGKERELVAAISSSGGRTYYADSVKGRFSISRDNAKNTVYLQMNSLKPEDTAVYYCAAEAYPWYVPYDYWGQGTQVTVSS,high polyreactivity
7,QVQLVESGGGLVQAGGSLRLSCAASGFIFLSYAMGWYRQAPGKESELVAAITSNGGSTYYADSVKGRFTISRDNAKNTVYLQMNSLKPEDTAVYYCSADSGYGPYYYWGQGTQVTVSS,high polyreactivity
8,QVQLVESGGGLVQAGGSLRLSCAASGFIFLYYAMGWNTQSPGKERELVADISRGADTKYADSVKGRFTISRDNAKNTVYLQMNSLKPEDTAVYYCATDITTFWFPYPGVELGYWGQGSQVTVSS,low polyreactivity
9,QVQLVESGGGLVQAGGSLRLSCAASGFIFNFYAMGWYRQAPGKERELVAAISRSGGRTYYADSVKGRFTISRDNAKNTVYLQMNSLKPEDTAVYYCAAVTKSLYGYDYWGQGTQVTVSS,low polyreactivity
10,QVQLVESGGGLVQAGGSLRLSCAASGFIFNGNVMGWYRQAPGKERELVAAITVSGGSTRYADSVKGRFTISRDNAKNTVYLQMNSLKPEDTAVYYCAARTRYLSYGWIHEYYYWGQGTQVTVSS,high polyreactivity
11,QVQLVESGGGLVQAGGSLRLSCAASGFIFNHNAMGWYRQAPGKERELVAAISSGGRTYYADSVKGRFTISRDNAKNTVYLQMNSLKPEDTAVYYCAKDTKYSSQYGKYGYWGQGTQVTVSS,low polyreactivity
12,QVQLVESGGGLVQAGGSLRLSCAASGFIFNHYAMGWYRQAPGKEREFVAAISWSGGSTYYADSVKGRFTISRDNAKNTVYLKMNSLKPEDTAVYYCAASYNGLWHGDYNYWGQGTQVTVSS,low polyreactivity
13,QVQLVESGGGLVQAGGSLRLSCAASGFIFNKYAMGWYRQAPGKERQLVATIRRDGSTNYADSVKGRFTISRDNAKNTVYLQMNSLKPEDTAVYYCAVRPYYWSRDYYWGQGTQVTVSS,high polyreactivity
14,QVQLVESGGGLVQAGGSLRLSCAASGFIFNNYAMGWYRQAPGKERELVAAITWSGGGTYYADSVKGRFTISRDNAKNTVYLQMTSLKAEDTAVYYCAVYYPAYRDEYWGQGTQVTVSS,high polyreactivity
15,QVQLVESGGGLVQAGGSLRLSCAASGFIFNQYAMGWYRQAPGKERELVAAIRGSGGRTYYADSVKGRFTISRDNAKNTVYFQMNSLKPEDTAVYYCAKQRFGYRRSPGDYWGQGTQVTVSS,high polyreactivity
16,QVQLVESGGGLVQAGGSLRLSCAASGFIFNRNAMGWYRQAPGKERELVAGINSGGTTKYADSVKGRFTISRDNAKNTVYLQMISLIPEDTAVYYCAKPLNYRYYVGYPLDYWGQGTQVTVSS,low polyreactivity
17,QVQLVESGGGLVQAGGSLRLSCAASGFIFNRYAMGWYRQAPGKERELVAAITASGGSTYYADSVKGRFTISRDNAKNTVYLQMNSLKQEDTAVYYCAARAWLYSRRYGYWGQGTQVTVSS,high polyreactivity
18,QVQLVESGGGLVQAGGSLRLSCAASGFIFNRYTMGWYRQAPGKERELVAAITGRGGSTYYADSVKGRFSISRDNAKNTVYLQMNSLKPEDTAVYYCAAAPAYRYASYTYGYDSWGQGTQVTVSS,high polyreactivity
19,QVQLVESGGGLVQAGGSLRLSCAASGFIFPFNAMGWYRQAPGKERELVAAITSGGSTYYADSVKGRFTISRDNAKNTVYLQMNSLKPEDTAVYYCAKSWDRIGIWYRLEYWGQGTQVTVSS,low polyreactivity
20,QVQLVESGGGLVQAGGSLRLSCAASGFIFPGNAMGWYRQAPGKEREFVAVISGSGGSTYYADSVKGRFTISRDNAKNTVYLQMNSLKPEDTAVYYCAAVYRDKSQRADYDYWGQGTQVTVSS,high polyreactivity
21,QVQLVESGGGLVQAGGSLRLSCAASGFIFPGNARAWYRQAPGKERELVAAISNSGSRTYYADSVKGRFTISRDNAKNTVYLQMNSLKPEDTAVYYCNADVPNRGWPYDYWGQGTQVTVSS,low polyreactivity
22,QVQLVESGGGLVQAGGSLRLSCAASGFIFPLYAMGWYRKAPGKERELVAAITWRGDTTSYADSVKGRFTISRDNAKNTVYLQMNSLKPEDTAVYYCAAEFYDWWYYGGGEYWGQGTQVTVSS,high polyreactivity

row,Sequence,polyreactivity (PSR sort gate)
1,QVQLVESGGGLVQAGGSLRLSCAASGFIFPLYTMGWYRQAPGKERELVAANSVTGGSTYYADSVKGRFTISRDNAKNTVYLQMNSLKPEETAVYYCNAYLFFLNRVWSFDYWGQGTQVTVSW,high polyreactivity
2,QVQLVESGGGLVQAGGSLRLSCAASGFIFPQNAMGWYRQAPGKERELVAAIRWSGGRTYYADSVKGRFTISRDNAKNTVYLQMNSLNPEDTAVYYCAADVRQRGIYGPGPHYYWGQGTQVTVSS,high polyreactivity
3,QVQLVESGGGLVQAGGSLRLSCAASGFIFPQYAKGWYRQAPGKERELVAAISTGGGSTYYADSVKGRFTISRDNAKNTVYLQMNSLKPEDTAVYYCNARPKYDSGHYYWGQGTQVTVSS,high polyreactivity
4,QVQLVESGGGLVQAGGSLRLSCAASGFIFPRYAMGWYRQAPGKERELVAGITSRGTGTYYADSVKGRFTISRDNAKNTVYLQMNSLKPEDTAVYYCARLSTKPLPYDYWGLGTQVTVSS,high polyreactivity
5,QVQLVESGGGLVQAGGSLRLSCAASGFIFPSNVMGWYRQATGKERELVAAISTRGGRTYYADSVKGRFTISRDNAKNTVYLQMNSLKPEDTAVYYCAASISRQGGVGYWGQGTQVTVSS,high polyreactivity
6,QVQLVESGGGLVQAGGSLRLSCAASGFIFPSYVMGWYRQAPWKERELVATISHSGGSTYYADSVKGRFTLSRDNAKNTVYLQMNSLKPEDTAVYYCATRRRGPYSPYSPYDYWGQGTQVTVSS,high polyreactivity
7,QVQLVESGGGLVQAGGSLRLSCAASGFIFPVYTMGWYRQAPGKERELVAAITQIGGSTHYADSVTGRFTISRDNAKNTVYLQMNSLKPEDTAVYYCNAVPSYGTEYDYWGQGTQVTVSS,low polyreactivity
8,QVQLVESGGGLVQAGGSLRLSCAASGFIFPYYAMGWYRQAPGQERELVAAITGGGSRTYYADSVKGRFTISRDNAKNTVYLQMNSLKPEDTAVYYCAKGLSTGRAYRGYDYWGQGTQVTVSS,high polyreactivity
9,QVQLVESGGGLVQAGGSLRLSCAASGFIFQGYTMGWYRQAAGKERELVAAITSSGRTYYADSVKGRFTISRDNAKNTVYLQMNSLKPEDTAVYYCNADFLPSVANDYWGQGTQVTVSS,low polyreactivity
10,QVQLVESGGGLVQAGGSLRLSCAASGFIFQHYAMGWYRQAPGKERELVAAISKSGGSTYYADSVKGRFTISRDNAKNTVYLQMNSLKPEDTAVYYCAKVAVAGRGSGNYINHRFDYWGQGTQVTVSS,high polyreactivity
11,QVQLVESGGGLVQAGGSLRLSCAASGFIFQPYAMGWYRQAPGKERELVAAITSRGGRTYYADSVKGRFTISRDNAMNTVYLLMNSLKPEDTAVYYCAKRYAVYVTHFSRIRWYNYWGQGTQVTVSS,low polyreactivity
12,QVQLVESGGGLVQAGGSLRLSCAASGFIFQPYAMGWYRQAPVKERELVAAITSRGGRTYYADSVKGRFTISRDNAKNTVYLQMNSLKPEDTAVYYCNADIYASEYYYWGQGTQVTVSS,low polyreactivity
13,QVQLVESGGGLVQAGGSLRLSCAASGFIFQRYAMGWYRQAPGKERELVAAITRTGGRTYYADSVKGRFTISRDNAKNTVYLQMNSLKPEDTAVYYCAADRTLSYEYWGQGTQVTVSS,high polyreactivity
14,QVQLVESGGGLVQAGGSLRLSCAASGFIFQSYAMGWYRQAPGKERELVASITRSGGSTYYADSVKGRFTISRDNAKNTVYLQMNSLKPEDTAVYYCNTYRNHYGWRKFNYWGQGTQVTVSS,high polyreactivity
15,QVQLVESGGGLVQAGGSLRLSCAASGFIFQTNVMGWYRQAPGKERELVAAISSGDSTYYADSVKGRFTISRDNAKNTVYLQMNSLKPEDTAVYYCAARRGTGSYSYRYPYGYDYWGQGTQVTVSS,low polyreactivity
16,QVQLVESGGGLVQAGGSLRLSCAASGFIFQYYAMGWYREAPGKERELVAAISKTGGSTYYADSVKGRFTISRDNAKNTVYLQMNSLKPEDTAVYYCAVARSAYYRGNHWGQGSQVTVSS,high polyreactivity
17,QVQLVESGGGLVQAGGSLRLSCAASGFIFQYYAMGWYRQAPGKERELVAAITSGGTTYYADSVKGRFTISRDNAKNTVYLQMNSLKPEDTAVYYCAAVFVNFYARFDYWGQGTQVTVSS,low polyreactivity
18,QVQLVESGGGLVQAGGSLRLSCAASGFIFRDNTMGWYRQAPGKEREFVAGITKSGGSTYYADSVKGRFTISRDNAKNTVYLQMNSLKPEDTAVYYCAAYVPYTRYDYWGQGTQVTVSS,high polyreactivity
19,QVQLVESGGGLVQAGGSLRLSCAASGFIFRDYAMGWYRQAPGKERELVAAIDYSGGSTNYADSVKGRFTISRDNAKNTVYLQMNSLKPEDTAVYYCNAEYTWHRGYEYWGQGTQVTVSS,low polyreactivity
20,QVQLVESGGGLVQAGGSLRLSCAASGFIFRDYVMGWYRQAPGKERELVAAISYRGGSTNYADSVKGRFTISRDNAKNTVYLQMNSLKPEDTAVYSCAADQVHKREYDYWGQGTQVTVSS,low polyreactivity
21,QVQLVESGGGLVQAGGSLRLSCAASGFIFRGNAMGWYRQAPGKERELVAAISKRGGSTNYADSVKGRFTISRDNAKNTVYLQMNSLKPEDTAVYYCNAEGIYRQPRGYVYRYDYWGQGTQVTVSS,high polyreactivity
